Each block holds one binder with its values, some of them ahead of it.
Biological target: human plasma-derived FIXa (Haematologic Technologies Inc) (human) (UniProt P00740)
Assay: cell-based or functional assay

Sequence of human plasma-derived FIXa (Haematologic Technologies Inc) (human) (P00740 47-191, chain 1 of 2): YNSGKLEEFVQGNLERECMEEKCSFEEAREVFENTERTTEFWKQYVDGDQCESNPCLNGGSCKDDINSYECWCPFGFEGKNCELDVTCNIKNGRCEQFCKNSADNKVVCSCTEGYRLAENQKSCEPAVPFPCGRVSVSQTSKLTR
Sequence of human plasma-derived FIXa (Haematologic Technologies Inc) (human) (P00740 227-461, chain 2 of 2): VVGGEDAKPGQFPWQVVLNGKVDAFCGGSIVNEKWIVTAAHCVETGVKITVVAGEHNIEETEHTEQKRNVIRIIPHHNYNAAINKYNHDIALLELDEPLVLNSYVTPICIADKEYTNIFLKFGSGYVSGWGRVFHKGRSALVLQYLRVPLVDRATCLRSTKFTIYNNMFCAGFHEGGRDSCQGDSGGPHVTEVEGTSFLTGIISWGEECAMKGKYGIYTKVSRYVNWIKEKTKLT

- FXa generation rate at 3.2 nM mAb: 20 pM/min
- FXa generation rate at 6.3 nM mAb: 17.4 pM/min
- FXa generation rate at 12.5 nM mAb: 14.7 pM/min
- FXa generation rate at 25 nM mAb: 9 pM/min
- FXa generation rate at 50 nM mAb: 9 pM/min
- FXa generation rate at 100 nM mAb: 7.2 pM/min
- FXa generation rate at 200 nM mAb: 5.5 pM/min
- Peak stimulatory activity relative to 224F3 (fold relative to 224F3): 1
B1: 224F3 (anti-FIXa reference antibody, Scheiflinger et al.) (antibody, from another filing, human IgG1, V domains shown)
VH: QVQMQQSGAELVKPGASVKLSCKASGYTFTSQDINWVRQRPEQGLEWIGWIFPGDGSTKYNEKLKGKATLTTDKSSSTAFMQLSRLTSEDSAVYFCARSAYYRYDGSYYYAMDYWGQGTSVTVSS
VL: QIVLTQSPAIMSASLGEEITLTCSASSSVSYMLWYQQKSGTSPKLLIYTTSNLASGVPSRFSGTGSGTFYSLTISSVEAEDAADYYCHQWSSYPRTFGGGTKLEIKR

- Stimulation index at 3260 nM OA antibody: < 10 fold
B2: mAb1-1582 (monovalent one-armed version of the anti-FIXa antibody 224F3) (antibody, from another filing, V domains shown)
VH: B1 VH
VL: B1 VL
